In this data set the target is T1, SlyA (Shigella flexneri serotype 2a 2457T) (UniProt P0A8W4).
T1 sequence: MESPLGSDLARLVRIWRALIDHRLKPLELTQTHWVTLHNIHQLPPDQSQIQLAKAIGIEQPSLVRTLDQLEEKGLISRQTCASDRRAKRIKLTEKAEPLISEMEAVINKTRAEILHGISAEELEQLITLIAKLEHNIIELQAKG
As to the kind of experiment: EMSA. As to conditions: 10 mM Tris-HCl pH 7.5, 100 mM KCl, 1 mM EDTA, 0.1 mM DTT, 5% glycerol, 10 ug/mL BSA, room temperature 30 min. For orientation: In EMSA bound probe runs differently from free probe, usually more slowly.

Regarding “CAGTCTGAACGGGGTGTACACGCCGTATATGCAGGATAAACAATAATTAATTTGATCGCCCGAACAGGAATGTTTGGGCGATTTTTATTACGATAATAAAGTCTGTTTTTAATATTATCATGTTAAATGTTTATATTATAAAAAGTCGTTTTTCTGCTTAGGATTTTGTTATTTAAATTAAGCCTGTAATGCCTTGCTTCCATTGCGGATAAATCCTACTTTTTTATTGCCTTCAAATAAATTTAAGGAGTTCGAAATGGACCAGAAGCTGTTAACGGATTTCCGCTCAG (double strand) [PgadA]”, the binding entry was “binds”.

These data come from paper PMC6128205.
